Test results: patent US6495144B2, “EBNA2 peptides and methods of using same” (Johns Hopkins University School of Medicine, priority 1996, dated 2002)
Entries after “also recorded” stand apart in the source; their conditions may differ. Marks after values point to notes of the source that are not given here.

Key:
[1] = target: T1, CBF1/RBPJk (Homo sapiens, UniProt Q06330); test: EMSA of EBNA2/CBF1 complex formation with in vitro translated EBNA2 peptides; format: binding; conditions: for behaviour in EMSA (competition for CBF1 complex, formation of supershifted EBNA2/CBF1 complex): equimolar in vitro translated peptides, Cp CBF1 binding site probe
T1 construct: EMSA using CBF1 purified by heparin-agarose chromatography; endogenous in cells; host or cells: CA46 cells (fractionated extract, heparin-agarose)
Description: FIG. 3 is an autoradiogram that depicts the effect of mutations on the ability of an EBNA2 (i.e., E2) peptide comprising amino acids 252-425 to interact with CBF1/RBPJk: probe (lane 1); E2 only (lane 2); lysate (lane 3); CBF1 (lane 4); CBF1 and lysate (lane 5); CBF1 and E2 252-425 (lane 6); CBF1 and del376-425 (lane 7); CBF1 and del343-425 (lane 8); CBF1 and del252-366 (lane 9); CBF1 and del252-309, del398-425 (lane 10); CBF1 and del344-357 (lane 11); CBF1 and II307SR (CR5) (lane 12); CBF1 and GP320SR (CR6) (lane 13); CBF1 and WW323SR (CR6) (lane 14); CBF1 and PI326SR (CR6) (lane 15); CBF1 and SR360VD (PKC) (lane 16); and CBF1 and LGL389SRT (CR7) (lane 17). Results of an EMSA using CBF1 purified by heparin-agarose chromatography and a 30-base pair oligonucleotide probe containing the Cp CBF1 binding site (Ling et al. (1993a), supra) are shown. The wild-type EBNA2 and mutant EBNA2 peptides spanning amino acids 252-425 were in vitro transcribed and translated, and equimolar amounts were added to the binding reactions. Addition of unprogrammed reticulocyte lysate to the CBF1 extract (+lysate) produced a minor bandshift that migrated in the range of the E2/CBF1 complex. The EBNA2/CBF1 complexes (i.e., E2/CBF1 complexes) vary in mobility depending on the size of the added EBNA2 peptide.
FIG. 6 is an EMSA that compares the ability of type A EBNA2 (i.e., EBNA2 comprising amino acids 252-425) and the homologous domains of type B (i.e., EBNA2 comprising amino acids 216-392) and HVP EBNA2 (i.e., HBP EBNA2 comprising amino acids 288-470) to form complexes with CBF1/RBPJk. The EBNA2 peptides and CBF1/RPBPJk were prepared by in vitro transcription and translation. EBNA2 peptides were added with two-fold increases in amount (black triangles) to a binding mixture containing a constant amount of CBF1/RBPJk and a 30-base pair Cp CBF1 binding site probe. Symbols: P, probe only; R, reticulolysate.
The relative positions of the various functional domains the EBNA2 protein are depicted in FIG. 1. To define the amino acids required for interaction with CBF1, various synthetic peptides comprising the promoter targeting domain (i.e., the CBF1/RBPJk interaction domain) were constructed. The truncated and mutated peptides diagrammed in FIG. 2 were synthesized by in vitro transcription-translation, and were tested for their ability to form complexes with CBF1 that could be detected in an electrophoretic mobility shift assay (EMSA) (Ling et al., J. Virol., 69, 1944-1950 (1995)). The expressed peptides were tested using a fractionated extract of EBV negative lymphoblastoid CA46 cells (American Type Culture Collection, Rockville, Md.). The peptides were labeled with ^35S-methionine, and their integrity was confirmed by sodium dodecylsulfate sulfate-polyacrylamide gel electrophoresis (SDS-PAGE). To ensure that equal amounts of the EBNA2 peptides were added to each binding reaction mixture, the SDS-PAGE bands were quantitated using a Molecular Dynamics Phosphorimager, and the volume of the samples was adjusted on the basis of peptide size and the number of methionine residues.

[2] = test system: EBV latency C promoter (Cp-CAT); test: Cp-CAT transactivation by EBNA2 effector DNAs cotransfected in DG75 cells; format: cell-based, Epstein-Barr virus; conditions: for transactivation of Cp-CAT, dose-response, in words: 0-2.0 μg effector DNA, 2 μg target; for % Transactivation: relative EBNA2 transactivation of the Cp, at DNA concentrations giving 50% acetylation for wild-type EBNA2, mutations in full-length EBNA2
Experimental: FIGS. 4A-4B are graphs that depict μg effector versus % acetylation for transactivation in DG75 cells of a Cp-CAT construction (Ling et al. (1993b), supra) cotransfected at 2 μg with increasing amounts (i.e., 0, 0.25, 0.5, 1.0 and 2.0 μg) of the indicated EBNA2 effector DNAs. Immunoblot analysis confirmed the equivalent expression of the different EBNA2 effector constructions in transfected cells.
FIGS. 7A-7B are graphs that depict μg effector versus fold-induction for cotransfection assays comparing the ability of type A EBNA2 and type B EBNA2 to transactivate expression from Cp-CAT (FIG. 7A) and CD23p-CAT (FIG. 7B) (Ling et al. (1994), supra) in DG75 cells. The target plasmids were transfected at a constant amount (2 μg) and the effector DNAs at increasing amounts of 0, 0.25, 0.5, 1.0 and 2.0 μg.
In order to correlate the effect of the mutations on CBF1 interaction measured in the in vitro binding assays with the effects on CBF1 interaction in vivo in cultured cells, the point mutations and the glycine-arginine deletion were incorporated into full-length EBNA2 proteins which were used to study EBNA2 targeting in transactivation assays. The mutant proteins were synthesized in equal abundance in transfected cells as assessed by Western blot analysis. FIGS. 4A and 4B compare the ability of wild-type and mutant EBNA2 proteins to transactivate expression from the EBV latency C promoter in a dose-response assay (Ling et al. (1993b), supra).

[3] = linear range of the assay, 0.5 μg effector DNA

T1 sequence (Q06330 whole entry): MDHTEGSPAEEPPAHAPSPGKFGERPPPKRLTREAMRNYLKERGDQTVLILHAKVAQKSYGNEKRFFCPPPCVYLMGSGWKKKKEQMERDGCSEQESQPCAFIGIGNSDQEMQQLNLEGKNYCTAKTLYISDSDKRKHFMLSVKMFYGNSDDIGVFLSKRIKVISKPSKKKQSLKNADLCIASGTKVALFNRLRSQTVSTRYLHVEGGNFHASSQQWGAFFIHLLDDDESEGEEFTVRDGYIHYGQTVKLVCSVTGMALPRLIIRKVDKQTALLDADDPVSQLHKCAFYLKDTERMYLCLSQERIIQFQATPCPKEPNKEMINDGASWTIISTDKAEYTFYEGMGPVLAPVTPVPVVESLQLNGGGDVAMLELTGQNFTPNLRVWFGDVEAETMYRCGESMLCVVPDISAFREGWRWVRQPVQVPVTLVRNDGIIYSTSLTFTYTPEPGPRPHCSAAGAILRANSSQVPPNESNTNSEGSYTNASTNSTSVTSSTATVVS

| Molecule | behaviour in EMSA (competition for CBF1 complex, formation of supershifted EBNA2/CBF1 complex) [1] | transactivation of Cp-CAT, dose-response, in words [2] | % Transactivation [2] | transactivation of Cp-CAT relative to wild-type EBNA2 ([2]; highest levels of effector DNA) [%] | transactivation of Cp-CAT relative to wild-type EBNA2 [2, 3] [%] | % Complex formation ([1]; EBNA2/CBF1 supershifted complex relative to wild-type EBNA2(252-425), phosphoimager, reticulocyte lysate background subtracted) [%] | behaviour in EMSA (competition for CBF1 complex, formation of supershifted EBNA2/CBF1 complex) ([1]; listed as glycine-arginine deletion) | amount of peptide required to convert all the CBF1 to the supershifted complex, versus type A EBNA2 ([1]; in vitro translated CBF1/RBPJk, two-fold increases of peptide) |
| --- | --- | --- | --- | --- | --- | --- | --- | --- |
| WW323SR (CR6): EBNA2 with tryptophans 323 and 324 in CR6 changed to SR (protein) MPTFYLALHGGQTYHLIVDTDSLGNPSLSVIPSNPYQEQLSDTPLIPLTIFVGENTGVPPPLPPPPPPPPPPPPPPPPPPPPPPPPPPSPPPPPPPPPPPQRRDAWTQEPSPLDRDPLGYDVGHGPLASAMRMLWMANYIVRQSRGDRGLILPQGPQTAPQARLVQPHVPPLRPTAPTILSPLSQPRLTPPQPLMMPPRPTPPTPLPPATLTVPPRPTRPTTLPPTPLLTVLQRPTELQPTPSPPRMHLPVLHVPDQSMHPLTHQSTPNDPDSPEPRSPTVFYNIPPMPLPPSQLPPPAAPAQPPPGVINDQQLHHLPSGPPSRPPICDPPQPSKTQGQSRGQSRGRGRGRGRGRGKGKSRDKQRKPGGPWRPEPNTSSPSMPELSPVLGLHQGQGAGDSPTPGPSNAAPVCRNSHTATPNVSPIHEPESHNSPEAPILFPDDWYPPSIDPADLDESWDYIFETTESPSSDEDYVEGPSKRPRPSIQ | did not compete for the CBF1 complex and produced little or no EBNA2/CBF1 supershifted complex | inability of this mutant to transactivate the Cp even at high doses of effector | 0% | – | – | – | – | – |
| PI326SR (CR6): EBNA2 with PI at 326 in CR6 changed to SR (protein) MPTFYLALHGGQTYHLIVDTDSLGNPSLSVIPSNPYQEQLSDTPLIPLTIFVGENTGVPPPLPPPPPPPPPPPPPPPPPPPPPPPPPPSPPPPPPPPPPPQRRDAWTQEPSPLDRDPLGYDVGHGPLASAMRMLWMANYIVRQSRGDRGLILPQGPQTAPQARLVQPHVPPLRPTAPTILSPLSQPRLTPPQPLMMPPRPTPPTPLPPATLTVPPRPTRPTTLPPTPLLTVLQRPTELQPTPSPPRMHLPVLHVPDQSMHPLTHQSTPNDPDSPEPRSPTVFYNIPPMPLPPSQLPPPAAPAQPPPGVINDQQLHHLPSGPPWWPSRCDPPQPSKTQGQSRGQSRGRGRGRGRGRGKGKSRDKQRKPGGPWRPEPNTSSPSMPELSPVLGLHQGQGAGDSPTPGPSNAAPVCRNSHTATPNVSPIHEPESHNSPEAPILFPDDWYPPSIDPADLDESWDYIFETTESPSSDEDYVEGPSKRPRPSIQ | did not compete for the CBF1 complex and produced little or no EBNA2/CBF1 supershifted complex; also recorded: severely impaired the ability of the peptide to form a complex with CBF1 in an EMSA | – | 2^c % | 20 | 2 | – | – | – |
| GP320SR (CR6): EBNA2 with two non-hydrophobic residues GP at 320 in CR6 changed to SR (protein) MPTFYLALHGGQTYHLIVDTDSLGNPSLSVIPSNPYQEQLSDTPLIPLTIFVGENTGVPPPLPPPPPPPPPPPPPPPPPPPPPPPPPPSPPPPPPPPPPPQRRDAWTQEPSPLDRDPLGYDVGHGPLASAMRMLWMANYIVRQSRGDRGLILPQGPQTAPQARLVQPHVPPLRPTAPTILSPLSQPRLTPPQPLMMPPRPTPPTPLPPATLTVPPRPTRPTTLPPTPLLTVLQRPTELQPTPSPPRMHLPVLHVPDQSMHPLTHQSTPNDPDSPEPRSPTVFYNIPPMPLPPSQLPPPAAPAQPPPGVINDQQLHHLPSSRPWWPPICDPPQPSKTQGQSRGQSRGRGRGRGRGRGKGKSRDKQRKPGGPWRPEPNTSSPSMPELSPVLGLHQGQGAGDSPTPGPSNAAPVCRNSHTATPNVSPIHEPESHNSPEAPILFPDDWYPPSIDPADLDESWDYIFETTESPSSDEDYVEGPSKRPRPSIQ | had no effect on the behavior of the peptide in the EMSA | mirrored that of wild-type EBNA2 | 120% | – | – | – | – | – |
| del344-357: EBNA2 with glycine-arginine repeats removed by deletion of amino acids 344-357 (protein) MPTFYLALHGGQTYHLIVDTDSLGNPSLSVIPSNPYQEQLSDTPLIPLTIFVGENTGVPPPLPPPPPPPPPPPPPPPPPPPPPPPPPPSPPPPPPPPPPPQRRDAWTQEPSPLDRDPLGYDVGHGPLASAMRMLWMANYIVRQSRGDRGLILPQGPQTAPQARLVQPHVPPLRPTAPTILSPLSQPRLTPPQPLMMPPRPTPPTPLPPATLTVPPRPTRPTTLPPTPLLTVLQRPTELQPTPSPPRMHLPVLHVPDQSMHPLTHQSTPNDPDSPEPRSPTVFYNIPPMPLPPSQLPPPAAPAQPPPGVINDQQLHHLPSGPPWWPPICDPPQPSKTQGQSRGQGKSRDKQRKPGGPWRPEPNTSSPSMPELSPVLGLHQGQGAGDSPTPGPSNAAPVCRNSHTATPNVSPIHEPESHNSPEAPILFPDDWYPPSIDPADLDESWDYIFETTESPSSDEDYVEGPSKRPRPSIQ | did not negatively affect EBNA2/CBF1 complex formation | – | 150% | – | 150 | 100 | did not negatively affect complex formation in the EMSA | – |
| type B EBNA2 comprising amino acids 216-392: homologous CBF1 interaction domain of human type B EBNA2, in vitro translated (protein) GHQLSLPPHPPPHQSTPHCSSDSTGLPPPPTSYSIPSMTLSPEPLPPPAAPAHPLPGVIYDQQALPPTPGPPWWPPVRDPTPTTQTPPTNTKQGPDQGQGRGRWRGRGRSKGRGRMHKLPEPRRPGPDTSSPSMPQLSPVVSLHQGQGPENSPTPGPSTAGPVCRVTPSATPDISPI | bound CBF1 comparably to type A EBNA2 | – | – | – | – | – | – | two-fold more |
